Broadly, the EC50 (read off the curve) is the concentration needed to bring the measured effect to its halfway point. A word on the Kd: it is the constant that tells how readily two partners part at equilibrium. In general, koff refers to the rate constant with which the complex falls apart. The term kon denotes the rate constant with which the complex forms. By EC50 is commonly meant the midpoint of the concentration-response curve. Usually IC50 stands for the concentration that inhibits the measured activity by half.

The results in this text go back to patent US20250171534A1 (D2M BIOTHERAPEUTICS, published 2025).

The target in assay [1] is T1, human LILRB2 expressed on cells (human, UniProt Q8N423 22-597).
T1 construct: In 293T cells it was expressed from pCMV3-LILRB2-GFP; also called CHO-LILRB2; Jurkat-LILRB2
T1 sequence (Q8N423 other isoform, or with tags, fused parts or gaps limits assumed): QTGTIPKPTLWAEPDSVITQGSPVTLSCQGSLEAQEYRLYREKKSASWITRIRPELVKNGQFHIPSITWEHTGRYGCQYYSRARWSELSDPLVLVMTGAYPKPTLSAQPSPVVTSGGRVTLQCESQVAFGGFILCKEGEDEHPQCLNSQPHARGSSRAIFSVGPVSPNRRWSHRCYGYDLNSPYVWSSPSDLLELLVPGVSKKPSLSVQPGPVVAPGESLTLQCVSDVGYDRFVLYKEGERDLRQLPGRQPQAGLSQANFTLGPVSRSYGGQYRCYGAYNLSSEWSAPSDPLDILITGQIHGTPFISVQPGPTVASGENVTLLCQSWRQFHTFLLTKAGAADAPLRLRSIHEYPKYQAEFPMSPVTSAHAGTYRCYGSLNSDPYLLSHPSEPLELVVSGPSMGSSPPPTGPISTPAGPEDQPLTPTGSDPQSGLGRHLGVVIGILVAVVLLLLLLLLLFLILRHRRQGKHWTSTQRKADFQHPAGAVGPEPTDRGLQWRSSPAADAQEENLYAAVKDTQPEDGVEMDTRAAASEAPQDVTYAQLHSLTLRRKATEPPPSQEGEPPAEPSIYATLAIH
The assay is described as follows: flow cytometry, Jurkat-LILRB2 cells.

In assay [2] the target is T2, human LILRB1 expressed on cells (human, UniProt Q8NHL6 24-650).
T2 construct: In 293T cells it was expressed from pCMV3-LILRB1-GFP; also called CHO-LILRB1; Jurkat-LILRB1
T2 sequence (Q8NHL6 other isoform, or with tags, fused parts or gaps limits assumed): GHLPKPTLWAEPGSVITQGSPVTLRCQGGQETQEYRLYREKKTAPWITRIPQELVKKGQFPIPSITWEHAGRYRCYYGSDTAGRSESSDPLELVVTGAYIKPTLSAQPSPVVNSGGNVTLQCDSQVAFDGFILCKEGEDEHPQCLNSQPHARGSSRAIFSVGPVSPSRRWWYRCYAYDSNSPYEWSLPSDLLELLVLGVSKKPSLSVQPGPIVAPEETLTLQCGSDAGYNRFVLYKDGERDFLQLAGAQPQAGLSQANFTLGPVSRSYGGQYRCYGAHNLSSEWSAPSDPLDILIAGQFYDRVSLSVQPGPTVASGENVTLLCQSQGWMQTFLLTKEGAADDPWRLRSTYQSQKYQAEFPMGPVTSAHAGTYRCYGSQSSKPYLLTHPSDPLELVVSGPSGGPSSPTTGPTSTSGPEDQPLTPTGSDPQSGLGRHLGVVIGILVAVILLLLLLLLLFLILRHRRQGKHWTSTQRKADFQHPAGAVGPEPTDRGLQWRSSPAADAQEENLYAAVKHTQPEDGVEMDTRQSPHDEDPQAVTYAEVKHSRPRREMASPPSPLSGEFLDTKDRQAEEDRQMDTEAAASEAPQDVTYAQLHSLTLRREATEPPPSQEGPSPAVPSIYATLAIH
The assay is described as follows: flow cytometry, Jurkat-LILRB1 cells; blocked ligand: APC HLA-G trimer tetramer. For orientation: A flow cytometer gives signals particle by particle.

The target of assay [3] is T3, LILRB2-ECD-HIS (SinoBiological Cat #: 14132-H02H) (human, UniProt Q8N423 22-460).
T3 construct: Bought protein; also called monomeric antigen LILRB2-ECD-HIS; not shown: His tag
T3 sequence (Q8N423 other isoform, or with tags, fused parts or gaps H02H H02H): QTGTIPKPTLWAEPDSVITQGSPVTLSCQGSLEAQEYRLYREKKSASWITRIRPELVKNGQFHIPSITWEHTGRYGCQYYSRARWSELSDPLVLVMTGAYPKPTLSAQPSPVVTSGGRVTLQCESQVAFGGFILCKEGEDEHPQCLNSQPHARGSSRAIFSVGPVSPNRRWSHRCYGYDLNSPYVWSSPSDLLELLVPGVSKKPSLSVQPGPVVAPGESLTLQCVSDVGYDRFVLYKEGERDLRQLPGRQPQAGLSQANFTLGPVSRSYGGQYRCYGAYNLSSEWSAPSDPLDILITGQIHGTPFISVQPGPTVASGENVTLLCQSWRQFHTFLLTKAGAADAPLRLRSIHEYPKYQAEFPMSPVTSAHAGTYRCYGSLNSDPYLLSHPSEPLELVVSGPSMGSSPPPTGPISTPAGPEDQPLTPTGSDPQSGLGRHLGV
The assay is described as follows: BLI (Gator), RB2-ECD-his.

Assay [4] deals with T4, LILRB1-ECD-HIS (SinoBiological Cat #: 16014-H02H) (human, UniProt Q8NHL6 24-461).
T4 construct: Bought protein; also called monomeric antigen LILRB1-ECD-HIS; not shown: His tag
T4 sequence (Q8NHL6 other isoform, or with tags, fused parts or gaps H02H H02H): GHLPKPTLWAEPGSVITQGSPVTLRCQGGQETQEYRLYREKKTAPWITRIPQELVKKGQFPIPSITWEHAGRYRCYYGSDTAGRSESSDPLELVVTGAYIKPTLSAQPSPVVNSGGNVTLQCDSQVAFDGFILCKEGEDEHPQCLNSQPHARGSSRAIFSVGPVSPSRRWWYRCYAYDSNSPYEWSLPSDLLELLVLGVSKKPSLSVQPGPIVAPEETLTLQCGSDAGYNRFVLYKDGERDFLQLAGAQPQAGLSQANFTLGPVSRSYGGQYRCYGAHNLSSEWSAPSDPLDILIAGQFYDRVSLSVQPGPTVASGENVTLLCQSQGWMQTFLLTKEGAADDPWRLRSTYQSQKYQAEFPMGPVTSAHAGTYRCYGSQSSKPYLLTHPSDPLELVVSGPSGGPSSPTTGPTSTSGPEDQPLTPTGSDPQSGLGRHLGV
The experiment in a line: SPR (Carterra), LILRB1-ECD-his.

Assay [5] has as its target T3, LILRB2-ECD-HIS (SinoBiological Cat #: …). The assay is described as follows: SPR (Carterra), LILRB2-ECD-his.
Assay [6] addresses T5, cynomolgus monkey putative LILRB2 (antigen of the Gator measurement) (cynomolgus monkey).
T5 construct: also called cynomolgus monkey LILRB2
The experiment in a line: BLI (Gator), cyno RB2-his.

The target in assay [7] is T2, human LILRB1 expressed on cells. The experiment in a line: flow cytometry, Jurkat-LILRB1 cells.
For assay [8] the target is unchanged. The experiment in a line: flow cytometry, Jurkat-LILRB1 cells. This is another data set of the same source.
For assay [9], the target named is T1, human LILRB2 expressed on cells. The assay is described as follows: flow cytometry, Jurkat-LILRB2 cells. The source holds these as a separate data set.
The target in assay [10] is T4, LILRB1-ECD-HIS (SinoBiological Cat #: …). The experiment in a line: BLI (Gator), RB1-ECD-his.
In assay [11] the target is T2, human LILRB1 expressed on cells. The assay is described as follows: flow cytometry, Jurkat-LILRB1 cells; blocked ligand: APC HLA-G trimer tetramer. The source holds these as a separate data set.
Assay [12] concerns the target T1, human LILRB2 expressed on cells. The experiment in a line: flow cytometry, Jurkat-LILRB2 cells; blocked ligand: APC HLA-G monomer tetramer.
Assay [13] has as its target T6, LILRA3 expressed on 293T cells (UniProt Q8N6C8 24-439, limits assumed).
T6 construct: whole, on cells; GFP-tagged, transient
The assay is described as follows: flow cytometry on 293T cells transiently expressing LILRA3, APC anti-human Fc; gMFI as fold to IgG staining.

The target in assay [14] is T7, LILRB3 expressed on cells (human, UniProt O75022 24-631).
T7 construct: whole, on cells; Expressed with a GFP tag from the bought plasmid; also called human LILRB3; CHO-LILRB3
The experiment in a line: flow cytometry on 293T cells transiently expressing LILRB3, APC anti-human Fc; gMFI as fold to IgG staining.

For assay [15], the target named is T2, human LILRB1 expressed on cells. The experiment in a line: flow cytometry, CHO-LILRB1 cells.
Assay [16] deals with T8, LILRA4 expressed on 293T cells (UniProt P59901 24-499, limits assumed).
T8 construct: whole, on cells; GFP-tagged, transient
The assay is described as follows: flow cytometry on 293T cells transiently expressing LILRA4, APC anti-human Fc; gMFI as fold to IgG staining.

For assay [17], the target named is T9, LILRB5 expressed on 293T cells (UniProt O75023 24-590, limits assumed).
T9 construct: whole, on cells; GFP-tagged, transient
T9 sequence (O75023 24-590 limits assumed): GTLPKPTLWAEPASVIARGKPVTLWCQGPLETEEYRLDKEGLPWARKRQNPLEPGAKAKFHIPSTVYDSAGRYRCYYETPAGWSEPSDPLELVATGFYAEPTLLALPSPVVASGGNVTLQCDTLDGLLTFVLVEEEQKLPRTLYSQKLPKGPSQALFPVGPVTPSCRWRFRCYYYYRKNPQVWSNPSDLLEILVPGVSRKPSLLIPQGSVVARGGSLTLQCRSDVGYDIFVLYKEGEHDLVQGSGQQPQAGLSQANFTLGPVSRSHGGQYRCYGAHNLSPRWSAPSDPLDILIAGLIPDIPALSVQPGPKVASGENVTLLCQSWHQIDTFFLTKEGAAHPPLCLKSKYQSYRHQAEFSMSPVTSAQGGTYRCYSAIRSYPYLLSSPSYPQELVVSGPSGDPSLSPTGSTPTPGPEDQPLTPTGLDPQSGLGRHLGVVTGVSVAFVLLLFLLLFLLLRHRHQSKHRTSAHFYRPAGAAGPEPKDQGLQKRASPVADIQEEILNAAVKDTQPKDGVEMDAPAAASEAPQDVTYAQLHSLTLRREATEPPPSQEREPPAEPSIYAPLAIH
The experiment in a line: flow cytometry on 293T cells transiently expressing LILRB5, APC anti-human Fc; gMFI as fold to IgG staining.

Assay [18] deals with T1, human LILRB2 expressed on cells. The experiment in a line: flow cytometry on CHO-LILRB2 cells, non-linear fit of the curves of FIG. 26B.
For assay [19], the target named is T10, LILRA6 expressed on cells (human, UniProt Q6PI73 24-481).
T10 construct: whole, on cells; GFP-tagged; also called human LILRA6; CHO-LILRA6
T10 sequence (Q6PI73 24-481): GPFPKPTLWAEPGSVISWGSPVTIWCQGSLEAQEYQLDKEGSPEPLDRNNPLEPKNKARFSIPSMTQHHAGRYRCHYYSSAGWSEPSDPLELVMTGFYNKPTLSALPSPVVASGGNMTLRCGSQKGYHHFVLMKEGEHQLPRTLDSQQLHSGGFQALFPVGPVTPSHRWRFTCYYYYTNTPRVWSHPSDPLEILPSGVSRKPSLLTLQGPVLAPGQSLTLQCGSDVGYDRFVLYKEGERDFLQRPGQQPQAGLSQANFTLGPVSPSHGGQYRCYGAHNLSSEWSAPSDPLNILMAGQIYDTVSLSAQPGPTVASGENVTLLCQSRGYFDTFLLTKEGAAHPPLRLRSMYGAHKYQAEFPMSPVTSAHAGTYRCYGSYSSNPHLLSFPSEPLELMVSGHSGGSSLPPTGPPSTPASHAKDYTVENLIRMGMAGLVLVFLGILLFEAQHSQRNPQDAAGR
The experiment in a line: flow cytometry on 293T cells transiently expressing LILRA6, APC anti-human Fc; gMFI as fold to IgG staining.

The target in assay [20] is T11, LILRA5 expressed on 293T cells (UniProt A6NI73 42-299, limits assumed).
T11 construct: whole, on cells; GFP-tagged, transient
T11 sequence (A6NI73 42-299 limits assumed): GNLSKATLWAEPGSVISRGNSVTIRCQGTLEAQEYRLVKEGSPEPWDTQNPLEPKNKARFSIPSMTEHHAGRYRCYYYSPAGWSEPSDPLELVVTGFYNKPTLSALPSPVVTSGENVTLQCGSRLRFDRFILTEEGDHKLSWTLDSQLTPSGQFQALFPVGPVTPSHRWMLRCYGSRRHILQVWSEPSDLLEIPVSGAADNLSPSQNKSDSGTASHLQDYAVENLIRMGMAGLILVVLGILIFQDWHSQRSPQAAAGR
The experiment in a line: flow cytometry on 293T cells transiently expressing LILRA5, antibody 5 µg/mL, APC anti-human Fc; gMFI as fold to IgG staining.

For assay [21], the target named is T12, LILRA2 expressed on 293T cells (UniProt Q8N149 24-483, limits assumed).
T12 construct: whole, on cells; GFP-tagged, transient
The assay is described as follows: flow cytometry on 293T cells transiently expressing LILRA2, APC anti-human Fc; gMFI as fold to IgG staining.

The target of assay [22] is T2, human LILRB1 expressed on cells. The experiment in a line: flow cytometry on CHO-LILRB1 cells, non-linear fit of the curves of FIG. 26A.
Assay [23] shares this target. The assay is described as follows: flow cytometry, CHO-LILRB1 cells. The source holds these as a separate data set.
Assay [24] addresses T13, LILRB4 expressed on 293T cells (UniProt Q8NHJ6 22-448, limits assumed).
T13 construct: whole, on cells; GFP-tagged, transient
The assay is described as follows: flow cytometry on 293T cells transiently expressing LILRB4, APC anti-human Fc; gMFI as fold to IgG staining.

Assay [25] deals with T14, LILRA1 expressed on cells (human, UniProt O75019 17-489).
T14 construct: whole, on cells; GFP-tagged; also called human LILRA1; CHO-LILRA1
T14 sequence (O75019 17-489): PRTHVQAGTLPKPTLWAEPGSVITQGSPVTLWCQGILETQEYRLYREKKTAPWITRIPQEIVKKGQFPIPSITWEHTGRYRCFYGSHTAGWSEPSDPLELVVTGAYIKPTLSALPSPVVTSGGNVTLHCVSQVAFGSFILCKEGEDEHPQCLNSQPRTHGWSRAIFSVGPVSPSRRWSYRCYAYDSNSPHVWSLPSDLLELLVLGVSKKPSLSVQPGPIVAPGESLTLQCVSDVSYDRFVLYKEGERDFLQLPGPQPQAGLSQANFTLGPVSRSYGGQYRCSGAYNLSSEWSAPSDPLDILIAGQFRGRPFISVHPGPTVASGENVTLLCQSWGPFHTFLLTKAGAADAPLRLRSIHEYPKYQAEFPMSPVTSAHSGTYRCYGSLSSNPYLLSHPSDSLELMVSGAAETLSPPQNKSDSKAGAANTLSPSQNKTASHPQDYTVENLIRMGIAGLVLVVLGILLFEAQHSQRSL
The experiment in a line: flow cytometry on CHO-LILRA1 cells, non-linear fit of the curves of FIG. 26E.

Assay [26] addresses T3, LILRB2-ECD-HIS (SinoBiological Cat #: …). The experiment in a line: SPR (Carterra LSA), antibody captured, antigen injected.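 Also: kd obtained from kinetic analysis of antibody binding to the antigen, with association and dissociation phases fitted in the instrument software.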
The target in assay [27] is T4, LILRB1-ECD-HIS (SinoBiological Cat #: …). The assay is described as above.
Assay [28] deals with T2, human LILRB1 expressed on cells. The experiment in a line: flow cytometry on CHO-LILRB1 cells (CHO-RB1), titrated antibody, labelled anti-human Fc, gMFI.
Assay [29] addresses T1, human LILRB2 expressed on cells. The experiment in a line: flow cytometry, CHO-LILRB2 cells.
Assay [30] addresses T14, LILRA1 expressed on cells. The experiment in a line: flow cytometry on CHO-LILRA1 cells (CHO-RA1), titrated antibody, labelled anti-human Fc, gMFI.
Assay [31] addresses T2, human LILRB1 expressed on cells. The experiment in a line: flow cytometry, CHO-LILRB1 cells; blocked ligand: APC HLA-G trimer tetramer.
Assay [32] deals with T1, human LILRB2 expressed on cells. The assay is described as follows: flow cytometry on CHO-LILRB2 cells (CHO-RB2), titrated antibody, labelled anti-human Fc, gMFI.
Assay [33] concerns the target T3, LILRB2-ECD-HIS (SinoBiological Cat #: …). The assay is described as follows: BLI epitope binning (Gator), monomeric antigen.
Assay [34] concerns the target T4, LILRB1-ECD-HIS (SinoBiological Cat #: …). The assay is described as follows: BLI epitope binning (Gator), monomeric antigen.

T6 sequence (Q8N6C8 24-439 limits assumed): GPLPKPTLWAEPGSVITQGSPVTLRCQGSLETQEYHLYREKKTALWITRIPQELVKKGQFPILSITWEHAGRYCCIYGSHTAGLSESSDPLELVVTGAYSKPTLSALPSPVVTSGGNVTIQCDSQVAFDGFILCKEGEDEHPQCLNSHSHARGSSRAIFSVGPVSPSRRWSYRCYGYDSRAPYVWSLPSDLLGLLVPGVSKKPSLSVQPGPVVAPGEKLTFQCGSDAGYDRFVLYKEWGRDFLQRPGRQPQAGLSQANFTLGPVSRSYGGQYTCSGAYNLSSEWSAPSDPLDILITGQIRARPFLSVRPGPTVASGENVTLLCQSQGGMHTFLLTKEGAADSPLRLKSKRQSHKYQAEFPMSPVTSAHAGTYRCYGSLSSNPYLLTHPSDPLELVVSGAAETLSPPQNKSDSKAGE

B1: D2M002-103 (antibody, V domains shown)
VH: QVQLVQSGAEVKKPGASVKVSCKASGYTFTRYVMHWVRQAPGQRLEWMGWINPNNEETKYSQKFKGRVTLTRDTSASTAYMELSSLRSEDTAVYYCARADLEILPYYDHARYAMDYWGQGTLVTVSS
VL: DIQMTQSPSSVSASVGDRVTITCRASENIYSHLAWYQQKPGKAPKLLVYNAKSLQSGVPSRFSGSGSGTDFTLTISSLQPEDFATYYCQHFWSTPPTFGGGTKVEIK
notes: also called P212_F01
As to B1, the concentration giving a half-maximal response (EC50 (read off the curve)) was roughly 0.06 mg/L in assay [1] and roughly 0.1 mg/L in assay [7]. Also, in assay [2], the “IC50 (read off the curve)” value was roughly 0.07 mg/L. Also, the Kd in [3] is 0.136 nM; in assay [4] it was 4.9 nM; in assay [5] it was 0.165 nM; in assay [6], 1.03 nM; in [10], 1.1 nM. Also, the koff in assay [4] came to 0.00101 s⁻¹; in assay [5] it was 0.000129 s⁻¹. Besides, the results for the on-rate (kon) in [4] and in [5] were 206000 M⁻¹ s⁻¹ and 781000 M⁻¹ s⁻¹, respectively. The 50% effective concentration (EC50) in assay [8] is 0.136 mg/L; in assay [9] it was 0.065 mg/L. Moreover, the 50% inhibitory concentration (IC50) was found to be 0.07 mg/L in assay [11] and 0.009 mg/L in assay [12].

B2: D2M002-026 (antibody, V domains shown)
VH: QVQLQQPGAELMKPGASVKISCKATGYTFSSYWIEWVKQRPGHGLEWIGEILPGDGSTNYNAKFKGQATFTADTSSNTAYMQFSSLTSEDSAVYYCARSGAGGYDSGAFAYWGQGTLVTVSS
VL: DIVLTQSPASLAVSLGQRATISCRASESVDTYGNSFMHWYQQKPGQPPKLLVYRTSNLESGIPARFSGSGSGTDFTLTINPVEADDVATYYCQQSNEDPWTFGGGTKLEIK
notes: Hit; also called clone #26
Consider B2, for which the binding result was “no binding (tested: 5 µg/mL)” in [13]; “no binding (tested: 5 µg/mL)” in assay [14]; “no binding (tested: 5 µg/mL)” in assay [16]; “no binding (tested: 5 µg/mL)” in assay [17]; “no binding (tested: 5 µg/mL)” in [19]; “binds” in [20]. Further, the binding result in assay [21] and in assay [24] was “no binding (tested: 5 µg/mL)” throughout. The concentration giving a half-maximal response (EC50) in assay [15] amounted to 0.818 mg/L; in assay [18], 0.18 mg/L; in assay [8], 1.94 mg/L; in assay [22] it was 0.4 mg/L; in assay [23] it was 1.02 mg/L; in assay [25], 0.0877 mg/L. The EC50 in assay [9] is 0.106 mg/L; in assay [29], 2.63 mg/L. The “gMFI (max)” value came out at 43200 in assay [15] and 35500 in [29]. Moreover, the Kd in assay [3] was 0.103 nM; in assay [4] it was 0.382 nM; in [5] it was 0.0608 nM; in assay [26], 0.0286 nM; in [27], 0.737 nM; in assay [10], 0.689 nM. Further, the koff in assay [4] was determined as 2.79e-05 s⁻¹; in assay [5] it was 4.53e-05 s⁻¹. The values for the on-rate constant (kon) in assay [4] and in [5] were 73100 M⁻¹ s⁻¹ and 745000 M⁻¹ s⁻¹, respectively. Further, the MaxMFI is 31800 in assay [18], 113000 in assay [22] and 28100 in assay [25]. Further, the “EC50 (read off the curve)” value in [28] was roughly 0.4 mg/L; in assay [30], roughly 0.09 mg/L; in [32] it was roughly 0.2 mg/L. The concentration for half-maximal inhibition (IC50) in assay [11] amounted to 0.34 mg/L; in assay [12] it was 0.023 mg/L; in assay [31], 0.197 mg/L.

B3: Anti-LILRB1/2 antibody Hz73D1.v1 (antibody, human IgG1, kappa, N297G, V domains shown)
VH: QVQLVQSGAEVKKPGASVKVSCKASGYTFTDYYINWVRQAPGQGLEWMGNVNPNDGGTTYNQKFKGRVTMTTDTSTSTAYMELRSLRSDDTAVYYCARREIYFYGTIYYYAMDYWGQGTLVTVSS
VL: DIQLTQSPSFLSASVGDRVTITCRASESVDYYGNSFMYWYQQKPGKAPKLLIYFASNLESGVPSRFSGSGSGTEFTLTISSLQPEDFATYYCQQNNEDPWTFGGGTKVEIKR
notes: also called NGM707
Turning to B3, the binding result in assay [33] and in [34] was “binds” each time.

B4: Anti-LILRB1 antibody 15G8 (antibody, human IgG4 S228P, kappa)
heavy: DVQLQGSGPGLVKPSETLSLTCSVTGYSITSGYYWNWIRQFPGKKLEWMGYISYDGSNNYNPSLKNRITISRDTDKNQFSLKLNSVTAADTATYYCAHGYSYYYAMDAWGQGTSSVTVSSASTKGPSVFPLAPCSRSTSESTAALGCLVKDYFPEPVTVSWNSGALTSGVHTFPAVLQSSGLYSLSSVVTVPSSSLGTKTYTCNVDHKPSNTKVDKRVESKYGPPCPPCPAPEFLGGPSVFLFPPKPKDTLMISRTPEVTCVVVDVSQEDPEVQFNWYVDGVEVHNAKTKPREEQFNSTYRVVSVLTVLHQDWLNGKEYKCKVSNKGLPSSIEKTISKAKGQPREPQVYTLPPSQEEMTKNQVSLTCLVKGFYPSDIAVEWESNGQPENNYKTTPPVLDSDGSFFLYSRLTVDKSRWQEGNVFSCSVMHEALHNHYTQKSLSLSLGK
light: DIQMTQSPSSLSASVGDRVTITCRTSQDISNYLNWYQQKPGKAVKLLISYTSRLHSGVPSRFSGSGSGTDYTLTISSLQPEDFATYYCQQGNTLPTFGQGTKLEIKRTVAAPSVFIFPPSDEQLKSGTASVVCLLNNFYPREAKVQWKVDNALQSGNSQESVTEQDSKDSTYSLSSTLTLSKADYEKHKVYACEVTHQGLSSPVTKSFNRGEC
notes: also called BND-22
In the case of B4, in assay [34], the binding result was “binds”.
